From PMC9556784

Key:
[1] = test system: PilJ soluble domain (Clostridioides difficile R20291?); assay: EMSA; conditions: 25C: 10 ng DNA in 10 ul, 10 mM Tris-HCl pH 8.5, 50 mM NaCl, 1 mg/ml BSA, 30 min, 1.5% agarose; 4C: 500 ng DNA in 10 ul, 20 mM Tris-HCl pH 8.3, 100 mM NaCl …
[2] = test system: PilW soluble domain (Clostridioides difficile R20291?); assay: EMSA; conditions: 25C: 10 ng DNA in 10 ul, 10 mM Tris-HCl pH 8.5, 50 mM NaCl, 1 mg/ml BSA, 30 min, 1.5% agarose; 4C: 500 ng DNA in 10 ul, 20 mM Tris-HCl pH 8.3, 100 mM NaCl …

plasmid DNA (25C EMSA)
Kd [1]: 2.2 µM | Kd [2]: 14.5 µM
